The test deals with T1, MAG-AP (Homo sapiens, UniProt P20916).
T1 construct: human MAG; NM_002361; amino acids 1-516; made in house; NgR1 transiently transfected into COS-7 cells
T1 sequence (P20916 20-516): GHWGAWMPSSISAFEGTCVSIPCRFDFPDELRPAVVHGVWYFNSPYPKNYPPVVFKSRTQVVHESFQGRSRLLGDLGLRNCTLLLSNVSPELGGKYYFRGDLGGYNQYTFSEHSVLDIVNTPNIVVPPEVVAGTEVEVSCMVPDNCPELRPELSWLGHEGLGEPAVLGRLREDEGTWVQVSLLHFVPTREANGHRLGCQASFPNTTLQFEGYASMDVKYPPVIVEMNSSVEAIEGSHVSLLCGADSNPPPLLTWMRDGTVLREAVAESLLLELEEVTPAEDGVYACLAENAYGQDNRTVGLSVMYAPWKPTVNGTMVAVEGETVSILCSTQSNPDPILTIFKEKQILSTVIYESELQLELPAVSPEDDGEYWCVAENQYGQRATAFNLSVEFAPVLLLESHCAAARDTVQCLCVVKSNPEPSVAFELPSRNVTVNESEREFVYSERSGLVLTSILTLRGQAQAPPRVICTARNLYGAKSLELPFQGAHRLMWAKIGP
Description: Cell-surface NgR binding assay, MAG-AP. Particulars: mutant NgR1 in COS-7 cells; MAG-AP 10 μg/ml (FIG. 7B). How it is done: COS-7 cells were cotransfected with either wild type or mutant NgR1 constructs along with a CMV-beta-galactosidase plasmid (pCMVb, BD Biosciences, San Jose, Calif.) as a transfection control. Transfection was performed in 6-well plates using Lipofectamine 2000 (Invitrogen, Carlsbad, Calif.) following the manufacturer's protocol. The next day, cells were trypsinized and seeded at 30,000 cells per well in duplicate polylysine-coated 96-well plates (BD Biosciences); one plate was used in the binding assay, and the other was used to correct for transfection efficiency by measuring beta-galactosidase activity (described below). The remaining cells were separately plated and assayed for surface expression of the NgR1 proteins by immunocytochemistry (Example 1.9) and for total NgR1 protein levels by Western blot analysis (Example 1.8). […] Binding of AP-tagged ligands was measured using the Great EscAPe SEAP Kit (BD Biosciences) following the manufacturer's recommended protocol. […] Sixty microliters of diluted CSPD® substrate (Applied Biosystems, Foster City, Calif.) was then added per well, incubated for 10 minutes at room temperature, and then read on an LMAXII luminometer (Molecular Devices). […] Beta-galactosidase activity was measured using the luminescent beta-gal detection kit II (BD Biosciences) following the manufacturer's recommended protocol. […]
Separate statistical analysis was performed for MAG-AP and Nogo-66-AP binding; a linear mixed model was fitted to the data using the receptors as the fixed effects and the experiments, replicates within each experiment, and receptor×experiment interactions as the random effects. […] Pairwise comparisons were performed between receptors in the framework of the linear mixed model, and raw p-values and Tukey-Kramer multiplicity-adjusted p-values were calculated. The corresponding 95% confidence intervals were also calculated.
(SEQ ID NO:51). […] Nogo-66-AP(C47V) concentration was determined by measuring alkaline phosphatase activity and by Western blot analysis for alkaline phosphatase. […]

Substitutions are numbered along the chain they refer to. Names may count otherwise.

B1: EM7: human NgR1 point mutant K277D/R279D (protein)
chain: CPGACVCYNEPKVTTSCPQQGLQAVPVGIPAASQRIFLHGNRISHVPAASFRACRNLTILWLHSNVLARIDAAAFTGLALLEQLDLSDNAQLRSVDPATFHGLGRLHTLHLDRCGLQELGPGLFRGLAALQYLYLQDNALQALPDDTFRDLGNLTHLFLHGNRISSVPERAFRGLHSLDRLLLHQNRVAHVHPHAFRDLGRLMTLYLFANNLSALPTEALAPLRALQYLRLNDNPWVCDCRARPLWAWLQDFDGSSSEVPCSLPQRLAGRDLKRLAANDLQGCAVATGPYHPIWTGRATDEEPLGLPKCCQPDAADKASVLEPGRPASAGNALKGRVPPGDSPPGNGSGPRHINDSPFGTLPGSAEPPLTAVRPEGSEPPGFPTSGPRRRPGCSRKNRTRSHCRLGQAGSGGGGTGDSEGS
For the molecule B1, the “reduction in binding of soluble MAG (MAG-AP) relative to wild type NgR1” value (shortened to “reduction … (MAG-AP) relative to wild type NgR1”) was 57%.

B2: EM8: human NgR1 point mutant K277A, R279A (protein)
chain: B1 chain with D251A, D253A
Take B2: the “reduction … (MAG-AP) relative to wild type NgR1” value was 58%.

B3: EM11: human NgR1 point mutant R279A (protein)
chain: B1 chain with D251K, D253A
Take B3: the “reduction … (MAG-AP) relative to wild type NgR1” value stood at 36%.

The values above are taken from US20080027001A1, “NOGO RECEPTOR FUNCTIONAL MOTIFS, PEPTIDE MIMETICS, AND MUTATED FUNCTIONAL MOTIFS RELATED THERETO, AND METHODS OF USING THE SAME” (priority 2006, published 2008).
